In the Human Domainome abundance scans (Beltran et al. 2025):
± gives the uncertainty stated by the source.

B1: Ankyrin-3, residues 4094 to 4171; numbered along this chain, Q12955 (parent)
chain: MAIVADHLGLSWTELARELNFSVDEINQIRVENPNSLISQSFMLLKKWVTRDGKNATTDALTSVLTKINRIDIVTLLE

Variants of: B1
Experiment: abundance fitness (aPCA) (normalised: wild type 0, dead -1); higher = more abundant; growth selection in yeast, the domain comes from the species named
Conditions: Homo sapiens

Row | Variant | abundance fitness
1 | L15R | -0.869 ± 0.11
2 | L15V | -0.039 ± 0.059
3 | L15T | -0.891 ± 0.3
4 | T75C | -0.081 ± 0.071
5 | T75V | -0.112 ± 0.088
6 | T75Q | 0.026 ± 0.083
7 | T75R | -0.002 ± 0.048
8 | T75E | 0.079 ± 0.1
9 | T75M | -0.026 ± 0.1
10 | H7T | -0.175 ± 0.069
11 | H7Q | -0.043 ± 0.066
12 | H7L | -0.366 ± 0.055
13 | H7Y | -0.444 ± 0.13
14 | H7S | -0.358 ± 0.065
15 | H7F | -0.521 ± 0.22
16 | H7W | -0.802 ± 0.21
17 | H7N | -0.292 ± 0.15
18 | S36A | -0.609 ± 0.085
19 | S36G | -0.28 ± 0.053
20 | S36C | -0.184 ± 0.11
21 | G53W | -0.849 ± 0.16
22 | G53E | -0.111 ± 0.072
23 | T13N | -0.309 ± 0.19
24 | T13Q | -0.201 ± 0.11

Row | Variant | abundance fitness
25 | W48R | -1 ± 0.23
26 | W48Q | -0.808 ± 0.33
27 | W48L | -0.715 ± 0.11
28 | R17H | -0.182 ± 0.13
29 | R17T | -0.037 ± 0.063
30 | R17P | -0.869 ± 0.27
31 | R17I | -0.412 ± 0.3
32 | R17C | -0.076 ± 0.12
33 | L37W | -0.395 ± 0.12
34 | L37A | -0.095 ± 0.065
35 | L37C | -0.15 ± 0.096
36 | L37V | 0.048 ± 0.067
37 | L37F | -0.231 ± 0.094
38 | T58S | 0.106 ± 0.058
39 | T58H | 0.001 ± 0.091
40 | T58A | -0.051 ± 0.06
41 | T58E | -0.113 ± 0.079
42 | T58F | -0.112 ± 0.15
43 | L76E | -0.185 ± 0.098
44 | L76M | 0.067 ± 0.23
45 | L76S | -0.175 ± 0.06
46 | L76P | -0.438 ± 0.079
47 | A60N | 0.219 ± 0.18
48 | A60D | -0.627 ± 0.31

Row | Variant | abundance fitness
49 | A60I | -0.28 ± 0.17
50 | A60L | -0.074 ± 0.054
51 | A60P | -0.993 ± 0.2
52 | A60E | 0.061 ± 0.075
53 | W12L | -0.838 ± 0.11
54 | W12E | -0.903 ± 0.2
55 | W12T | -1.1 ± 0.43
56 | W12C | -0.931 ± 0.28
57 | W12I | -0.738 ± 0.26
58 | V74N | -0.777 ± 0.33
59 | I71N | -0.155 ± 0.22
60 | I71G | 0.085 ± 0.049
61 | I71Y | 0.082 ± 0.19
62 | I71E | -0.066 ± 0.095
63 | I71T | -0.016 ± 0.13
64 | I71R | -0.036 ± 0.045
65 | I71L | 0.081 ± 0.053
66 | I71K | 0.057 ± 0.13
67 | I71M | 0.039 ± 0.062
68 | I71C | -0.167 ± 0.15
69 | K67C | -0.436 ± 0.25
70 | K67R | -0.091 ± 0.1
71 | K67W | -0.667 ± 0.37
72 | I3Q | -0.33 ± 0.076

Row | Variant | abundance fitness
73 | I3E | -0.342 ± 0.083
74 | I3H | -0.523 ± 0.17
75 | K54S | 0.049 ± 0.058
76 | T50Y | 0 ± 0.1
77 | T50H | 0.051 ± 0.081
78 | T50K | 0.098 ± 0.082
79 | T50Q | -0.024 ± 0.08
80 | Q28K | -0.134 ± 0.16
81 | Q28P | -0.652 ± 0.097
82 | Q28Y | -0.298 ± 0.3
83 | Q28F | -0.479 ± 0.26
84 | Q28G | -0.264 ± 0.06
85 | Q28T | -0.223 ± 0.083
86 | Q28C | -0.318 ± 0.19
87 | Q28D | 0.044 ± 0.21
88 | Q28A | 0.044 ± 0.054
89 | A2H | -0.033 ± 0.077
90 | A2T | 0.077 ± 0.06
91 | A2Y | -0.037 ± 0.21
92 | A2N | 0.08 ± 0.16
93 | P34E | -0.24 ± 0.099
94 | P34M | -0.658 ± 0.14
95 | P34L | -0.874 ± 0.11
96 | P34S | -0.145 ± 0.05

Row | Variant | abundance fitness
97 | P34W | -0.9 ± 0.18
98 | P34V | -1.11 ± 0.21
99 | P34N | -0.331 ± 0.2
100 | S41E | -0.912 ± 0.2
101 | S41F | -0.815 ± 0.36
102 | S41R | -0.725 ± 0.074
103 | S41V | -0.851 ± 0.17
104 | S41G | -0.047 ± 0.048
105 | S41P | -0.972 ± 0.17
106 | I29F | -0.765 ± 0.23
107 | I29L | -0.456 ± 0.064
108 | I29T | -0.752 ± 0.15
109 | D52N | -0.687 ± 0.41
110 | D52P | -0.767 ± 0.21
111 | D52K | -0.358 ± 0.24
112 | D52T | -0.607 ± 0.098
113 | D52F | -0.748 ± 0.26
114 | D52G | -0.625 ± 0.066
115 | D52W | -0.874 ± 0.18
116 | L44G | -0.93 ± 0.11
117 | L44A | -0.391 ± 0.064
118 | L44P | -0.867 ± 0.15
119 | L44V | -0.171 ± 0.047
120 | L44M | -0.074 ± 0.071

Row | Variant | abundance fitness
121 | I38C | -0.038 ± 0.066
122 | I38S | 0.078 ± 0.057
123 | V23D | -0.335 ± 0.16
124 | V23T | -0.023 ± 0.053
125 | V23L | -0.048 ± 0.042
126 | V23W | -0.049 ± 0.073
127 | V23C | -0.22 ± 0.1
128 | V4G | -0.889 ± 0.099
129 | V4K | -0.806 ± 0.29
130 | V4L | -0.397 ± 0.057
131 | V4A | -0.253 ± 0.073
132 | V4W | -1.01 ± 0.38
133 | L8S | -0.916 ± 0.17
134 | L8F | -0.463 ± 0.4
135 | I26E | -0.848 ± 0.17
136 | A16D | -0.813 ± 0.31
137 | A16H | -0.601 ± 0.28
138 | A16G | -0.257 ± 0.052
139 | E32P | -0.593 ± 0.11
140 | E32G | -0.202 ± 0.043
141 | E32S | -0.185 ± 0.052
142 | E32Y | -0.278 ± 0.2
143 | M43R | -0.128 ± 0.045
144 | M43H | 0.014 ± 0.11

Row | Variant | abundance fitness
145 | M43T | 0.033 ± 0.071
146 | N55V | -0.114 ± 0.062
147 | N55P | -0.603 ± 0.094
148 | N55C | -0.157 ± 0.13
149 | E18G | -0.455 ± 0.053
150 | E18H | -0.317 ± 0.15
151 | E18K | -0.532 ± 0.3
152 | N20I | -0.609 ± 0.31
153 | N20Q | -0.329 ± 0.093
154 | N20W | -0.902 ± 0.17
155 | N20G | -0.081 ± 0.054
156 | N20P | -1 ± 0.16
157 | N20V | -0.608 ± 0.086
158 | A56L | -0.433 ± 0.075
159 | A56M | -0.526 ± 0.12
160 | A56S | -0.517 ± 0.082
161 | A56G | -0.613 ± 0.072
162 | A56F | -0.304 ± 0.19
163 | V31K | 0.044 ± 0.11
164 | V31P | -0.929 ± 0.19
165 | V31H | 0.145 ± 0.098
166 | V31R | 0.041 ± 0.044
167 | V31L | 0.087 ± 0.051
